We go through 40 sequences from the supplement of paper PMC7877785.

The nature of the data set: self-splicing fitness, log relative to wild type (ln ratio); higher = more splicing; Tetrahymena group I intron in knt gene, E. coli kanamycin selection, DiMSum; sequences stand for … in CUCUCU…GGAGGGAAAAGUUAUCAGGCAUGCACCUGGUAGCUAGUCUUUAAACCAAUAGAUUGCAUCGGUUUAAAAGGCAAGACCGUCAAAUUGCGGGAAAGGGGUCAACAGCCGUUCAGUACCAAGUCUCAGGGGAAACUUUGAGAUGGCCUUGCAAAGGGUAUGGUAAUAAGCUGACGGACAUGGUCCUAACCACGCAGCCAAGUCCUAAGUCAACAGAUCUUCUGUUGAUAUGGAUGCAGUUCACAGACUAAAUGUCGGUCGGGGAAGAUGUAUUCUUCUCAUAAGAUAUAGUCGGACCUCUCCUUAAUGGGAGCUAGCGGAUGAAGUGAUGCAACACUGGAGCCGCUGGGAACUAAUUUGUAUGCGAAAGUAUAUUGAUUAGUUUUGGAGUACUCGUGGUCG
The method in brief:
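Colonies from six replicate transformations of E. coli BL21(DE3) were pooled and amplicon-sequenced on an Illumina HiSeq 2500. The library placed an intron with all eight P1ex-region nucleotides randomised inside the knt kanamycin-resistance gene on pET-22b(+), and cells grew overnight at 37°C or 30°C on LB agar with or without 25 μg/mL kanamycin (plus 100 μg/mL carbenicillin, 50 μM IPTG, 0.2% rhamnose). Fitness is the DiMSum error-weighted combination of wild-type-normalised replicate fold changes, kanamycin versus none.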

± gives the uncertainty stated by the source.

Regarding AUGUAGCAAUAUUACGUACA, the “self-splicing fitness (ln)” value (30 °C) is -0.425 ± 0.14 and the “self-splicing fitness (ln)” value (37 °C) is -0.328 ± 0.16.

For GGGCAGCAAUAUUACGAGAU, the “self-splicing fitness (ln)” value runs as follows: (30 °C) -3.14 ± 0.23; (37 °C) -2.41 ± 0.32.

Turning to UCGCAGCAAUAUUACGCAAC, under “37 °C”, the “self-splicing fitness (ln)” value was -2.8 ± 0.17.

Take AGAUAGCAAUAUUACGGAGG: the “self-splicing fitness (ln)” value reads like this: (30 °C) -4.37 ± 0.26; (37 °C) -3.22 ± 0.26.

As for CUCCAGCAAUAUUACGGCAA, the “self-splicing fitness (ln)” value by setting is: (30 °C) -3.55 ± 0.17; (37 °C) -2.71 ± 0.16.

Consider GACCAGCAAUAUUACGGCGG, for which the “self-splicing fitness (ln)” value runs as follows: (30 °C) -2.55 ± 0.2; (37 °C) -2.79 ± 0.27.

Turning to GUAAAGCAAUAUUACGUAUC, the “self-splicing fitness (ln)” value runs as follows: (30 °C) -1.1 ± 0.07; (37 °C) -0.568 ± 0.098.

For AAUUAGCAAUAUUACGCUGA, the “self-splicing fitness (ln)” value by setting is: (30 °C) -2.75 ± 0.4; (37 °C) -2.42 ± 0.27.

As for GUAAAGCAAUAUUACGCCAC, where the note is “37 °C”, the “self-splicing fitness (ln)” value is -1.86 ± 0.24.

On to AUAUAGCAAUAUUACGUAGA, for which the “self-splicing fitness (ln)” value by setting is: (30 °C) -2.19 ± 0.094; (37 °C) -1.87 ± 0.15.

GCCGAGCAAUAUUACGAAGC: the “self-splicing fitness (ln)” value was -2.8 ± 0.33 (30 °C) and -1.8 ± 0.46 (37 °C).

In the case of GAUUAGCAAUAUUACGGGCA, the “self-splicing fitness (ln)” value reads like this: (30 °C) -1.13 ± 0.13; (37 °C) -0.685 ± 0.12.

As for AGCUAGCAAUAUUACGGGGG, the “self-splicing fitness (ln)” value is, setting by setting: (30 °C) -3.05 ± 0.31; (37 °C) -1.64 ± 0.27.

On to AGGAAGCAAUAUUACGAAUC, for which the “self-splicing fitness (ln)” value (30 °C) was -2.86 ± 0.25.

Take UCCUAGCAAUAUUACGCUCG: the “self-splicing fitness (ln)” value (30 °C) is -3.13 ± 0.21.

For the sequence GAAAAGCAAUAUUACGGUUG, the “self-splicing fitness (ln)” value (30 °C) was -2.39 ± 0.088 and the “self-splicing fitness (ln)” value (37 °C) was -1.42 ± 0.12.

As to UCAAAGCAAUAUUACGGAGC, under “37 °C”, the “self-splicing fitness (ln)” value is -3.53 ± 0.33.

Turning to ACCGAGCAAUAUUACGGGAC, the “self-splicing fitness (ln)” value reads like this: (30 °C) -2.88 ± 0.13; (37 °C) -2.49 ± 0.18.

On to CCGGAGCAAUAUUACGCCAG, for which the “self-splicing fitness (ln)” value reads like this: (30 °C) -3.49 ± 0.2; (37 °C) -2.31 ± 0.24.

With AGGGAGCAAUAUUACGGUUA, the “self-splicing fitness (ln)” value (30 °C) is -2.53 ± 0.17 and the “self-splicing fitness (ln)” value (37 °C) was -2.98 ± 0.28.

For the sequence CUUGAGCAAUAUUACGUAGU, the “self-splicing fitness (ln)” value (30 °C) is -3.28 ± 0.3 and the “self-splicing fitness (ln)” value (37 °C) is -2.11 ± 0.33.

Take UCUUAGCAAUAUUACGGUUC: the “self-splicing fitness (ln)” value is, setting by setting: (30 °C) -3.68 ± 0.28; (37 °C) -2.29 ± 0.23.

Consider CGCGAGCAAUAUUACGUUAC, for which the “self-splicing fitness (ln)” value is, setting by setting: (30 °C) -4.07 ± 0.28; (37 °C) -1.78 ± 0.33.

In the case of CAGAAGCAAUAUUACGAUUA, the “self-splicing fitness (ln)” value (30 °C) was -2.93 ± 0.17 and the “self-splicing fitness (ln)” value (37 °C) is -1.51 ± 0.12.

On to AGGGAGCAAUAUUACGAGAG, for which the “self-splicing fitness (ln)” value is -3.23 ± 0.4 (30 °C) and -3.84 ± 0.46 (37 °C).

Consider CGAAAGCAAUAUUACGCUCG, for which the “self-splicing fitness (ln)” value (30 °C) was -3.71 ± 0.3 and the “self-splicing fitness (ln)” value (37 °C) is -2.26 ± 0.22.

Take AUAUAGCAAUAUUACGGCGU: the “self-splicing fitness (ln)” value by setting is: (30 °C) -0.109 ± 0.11; (37 °C) -0.16 ± 0.12.

As for CGCGAGCAAUAUUACGCUAC, the “self-splicing fitness (ln)” value (37 °C) was -2.08 ± 0.25.

Take GCAUAGCAAUAUUACGUUAC: the “self-splicing fitness (ln)” value by setting is: (30 °C) -2.15 ± 0.41; (37 °C) -1.85 ± 0.4.

Take CGACAGCAAUAUUACGACGG: the “self-splicing fitness (ln)” value stood at 0.243 ± 0.074 (30 °C) and 0.0681 ± 0.086 (37 °C).

CUGAAGCAAUAUUACGGGUU: the “self-splicing fitness (ln)” value is -3.71 ± 0.21 (30 °C) and -2.77 ± 0.22 (37 °C).

Take GCAGAGCAAUAUUACGCGUG: the “self-splicing fitness (ln)” value was -2.7 ± 0.24 (30 °C) and -3.6 ± 0.37 (37 °C).

As to AAUUAGCAAUAUUACGCAGG, the “self-splicing fitness (ln)” value reads like this: (30 °C) -2.44 ± 0.23; (37 °C) -1.89 ± 0.23.

On to GCAAAGCAAUAUUACGAGUC, for which the “self-splicing fitness (ln)” value runs as follows: (30 °C) -1.41 ± 0.14; (37 °C) -2.6 ± 0.19.

In the case of AGUGAGCAAUAUUACGCGGC, where the note is “30 °C”, the “self-splicing fitness (ln)” value was -3.16 ± 0.44.

In the case of UCAAAGCAAUAUUACGGUCG, the “self-splicing fitness (ln)” value runs as follows: (30 °C) -0.405 ± 0.069; (37 °C) -0.439 ± 0.094.

For the sequence UGGUAGCAAUAUUACGUUGG, the “self-splicing fitness (ln)” value (30 °C) is -1.4 ± 0.12 and the “self-splicing fitness (ln)” value (37 °C) is -1.7 ± 0.14.

Take ACUCAGCAAUAUUACGUUAG: the “self-splicing fitness (ln)” value runs as follows: (30 °C) -2.98 ± 0.13; (37 °C) -0.675 ± 0.11.

On to CUACAGCAAUAUUACGUUUG, for which the “self-splicing fitness (ln)” value is, setting by setting: (30 °C) -0.766 ± 0.04; (37 °C) -0.34 ± 0.06.

Take GUCCAGCAAUAUUACGGGAA: the “self-splicing fitness (ln)” value runs as follows: (30 °C) -0.0663 ± 0.071; (37 °C) -0.474 ± 0.077.
